B1: BgaA (Bifidobacterium breve UCC2003) (protein)
chain: MTNLQSAQQFSQAWLTDPRVFAVNRLAAHSSHKFYDHAPQCGEAMDLKQSLDGQWRVQMVDLADLADNELAEAAFAQPGYDAAGFSPIEVPSALETKGFLNHQYVNQQYPWSGHESPVAPDVPKHNHVALYRHEFSLEPKAAAVLEANKTAADDAAKRRVTLIFQGAATAIVVWLNGAFIGYAEDSFTPSEFDVTDVLRDGVNTLAVACFEFSSASWLEDQDFWRLHGIFRSVELEAQPLVHVNDLRVLADYDHTTGEGSLDVVALVRNAGTAAAVAATVLDAAGNTVWHSKLTAGADAETLTVKANVGKVNPWSAEEPTLYTLQVVATDAAGQVIEAALQRIGFRHFAIEDGLMKLNGKRIVFKGVDRHEFDARTGRTIAEADMIEDIHSFKRLNINAVRTSHYPNETRWYELCDEYGIYVLDETNLETHGSWTDPGDVFQPARAIPGSKDEWRAACVDRTASMVRRDYNHPSVVIWSLGNEAFGGDVFYSMRDFVHENDPFRPVHYEGTFNDPEFSAATDIMSRMYAKPDEIVKLYLGEDGKKPYISCEYSHSMGNSTGGLHLYTELERYPLYQGGFIWDYVDQALWQDCGDGTERLAYGGDFEDRPNDYEFSGDGVMFADRTPSPKAQEVKQLYANVKLVPDESGVTITNDNLFISTASSLFTARVLVDGVECWHANYRFDVPAGETVREPIAFPKVTDLVALSGSAEVTYEVDQRLAEATDWAPAGYELTFGQYVAAVSFDDGAADAVVAGDAEVAADGFNAGIHTDFGEVLLSKTQGGMVSFKRDGREMVIRRPNLTTFRALTDNDRGNGSGFERAQWMAAGRYARVTGTSVEETADGKGLKATYSYELADAKHTPVTVHYEVDAALRVHLTVKYPGEADAATLPAFGLEWILPKQYDRLRFYGLGPEETYADRLHGAKLGVFSRTAAEDCAPYLLPQETGNHEQVRWAEITDEYGHGMRVTAAGGTRFATSLLPYSSLMLEDALHQNELPKPRHTFLRLLAAQMGVGGDDTWGAPVHDEFQVPADQPLKLDVTLELI
notes: His6-tagged, expressed in Lactococcus lactis (pNZ8150), Ni-purified; dimer
B2: BgaB (Bifidobacterium breve UCC2003) (protein)
chain: MEHREFKWPQPLAGGKPRIWYGGDYNPDQWPEEVWDEDVALMQKAGVNLVSVAIFSWAKLEPEEGVYDFDWLDRVIDKLGKAGIAVDLASGTASPPMWMTQAHPEILWVDYRGDVCQPGARQHWRATSPVFLDYALNLCRKMAEHYKDNPYVVSWHVSNEYGCHNRFDYSEDAERAFQKWCEKKYGTIDAVNDAWGTAFWAQRMNNFSEIIPPRFIGDGNFMNPGKLLDWKRFSSDALLDFYKAERDALLEIAPKPQTTNFMVSAGGAGIDYDKWGYDVDFVSNDHYFTPGEAHFDELAYSASLCDGIARKNPWFLMEHSSSAVNWRPINYRVEPGELVRDSLAHLAMGADAICYFQWRQSKAGAEKWHSSMVPHAGPDSQIFRDVCELGADLNKLADEGLLSTKLVKSKVAVVFDYESQWATEHTATPTQEVRHWTEPLAWFRALADNGLTADVVPVRGPWDEYEAVVLPSLTILSEETTRRVREYVANGGKLFVTYYTGLVDDKDHVWLGGYPGSIRDVVGVRVEEFAPMGNDFPGAMDHLDLDNGTVAHDFADVITSVADTAHVVASFKADKWTGFDGAPAITINDFGDGKAAYVGARLGREGLAKSLPALLEELGIETSAEDDRGEVLRVERADETGENHFVFLFNRTHDVAIVDVDGEPLVASLAQVNESEHTAAIQPNGVLVVKL
notes: His6-tagged, expressed in Lactococcus lactis (pNZ8150), Ni-purified; trimer

Key:
[1] = substrate: O=[N+]([O-])c1ccccc1O[C@@H]1O[C@H](CO)[C@H](O)[C@H](O)[C@H]1O; experiment: o-nitrophenol release, A420; type: biochemical, Bifidobacterium breve; conditions: 0.1 M sodium acetate pH 6.5, 40 °C, unit mM, not in table
Text: o-nitrophenol release, A420 on BgaA

[2] = substrate: O=[N+]([O-])c1ccccc1O[C@@H]1O[C@H](CO)[C@H](O)[C@H](O)[C@H]1O; experiment: o-nitrophenol release, A420; type: biochemical, Bifidobacterium breve; conditions: 0.1 M sodium acetate pH 6.5, 40 °C, unit mM, not in table; remark: listed apart in the source
Text: o-nitrophenol release, A420 on BgaB

| Protein | Km [1] [mM] | Km [2] [mM] |
| --- | --- | --- |
| B1 | 10.8 | – |
| B2 | – | 8.607 |
